# From US20090281024A1 (RAPTOR PHARMACEUTICALS, published 2009)
# T1: RAP d3 (wild-type third domain of the receptor-associated protein) (human, UniProt P30533 235-353)
# T1 construct: range 201-319 (mature RAP numbering); Expressed in E. coli from pET30(+)a; also called wild-type RAP d3; not shown: N-terminal hexahistidine and S-peptide tags of pET30(+)a
# T1 sequence (looked up): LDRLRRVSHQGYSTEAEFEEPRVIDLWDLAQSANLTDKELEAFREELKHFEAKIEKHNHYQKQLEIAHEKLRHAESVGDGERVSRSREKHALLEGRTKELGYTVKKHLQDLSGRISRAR
# B1: MegaRAP1 d3 (designed binder)
# chain: LDRLRRVSHQGYTTEAKFEEPRVIDLWDLAQSANLTDKELEAFREELKYFKAKIEAHNHYQKQLEIAHEELRHAESVGDGERVSRSREKHALLEGRTKELGYTVKKHLQDLSGRISRAR
# notes: range 201-319 (mature RAP numbering); d3 of the variant selected on LRP2 CR89; also called RAPv2A d3; RAP v2A; not shown: N-terminal hexahistidine and S-peptide tags of pET30(+)a
# Molecular target: B1
# Assay: solid-phase binding assay: CR protein coated on the plate, d3 ligand at 80 nM, anti-RAP detection, blank-corrected absorbance
# Protocol: (§1) RAP d3, MegaRAP1 d3, VRAP2 d3, MatRAP1d3 and MatRAP2 d3 were each incubated at 80 nM concentrations with LRP1 CR3-5, LRP6 CR12, LRP6 CR23, LRP6 CR1-3, LRP2 CR89, LRP2 CR2728, LRP2 CR3031, LRP2 CR3435, LRP2 CR34-36, VLDLR CR78, VLDLR CR6-8, MAT CR12, MAT CR23 and MAT CR34. Samples were tested twice, in duplicate, and values combined. Means and standard deviations were then calculated. Blank values obtained from wells incubated in the absence of ligand were used to correct absorbance data.
# (§2) Solid phase binding assays—Purified, refolded CR protein (1 μg) was bound to Nunc Maxisorp™ 96-well plates in TBS pH 8 supplemented with 5 mM CaCl₂ (TBSC) overnight at 4° C. Wells were washed with TBSC and then blocked with TBSC containing 2% bovine serum albumin (BSA). RAP ligands were then incubated with the immobilized receptor at a range of concentrations for 2 hours in the above blocking buffer supplemented with 0.05% Tween-20 at room temperature. Control wells contained no added ligand. As an additional control, to determine whether the absence of calcium affected binding, 10 mM EGTA was included in the incubation medium for some samples. Wells were washed with TBSTC and bound ligands detected with polyclonal anti-RAP (BP41/42, 1:1,000, BioMarin). Excess primary antibody was removed and wells washed before incubation with the secondary antibody, HRP-conjugated goat anti rabbit IgG (Bio-Rad). After washing, TMB substrate solutions (Bio-Rad) were added to detect HRP. Color development was stopped with 1N HCl. Absorption at 450 nm was measured with a microplate spectrophotometer (Molecular Devices). Data were plotted and Kd values derived by non-linear regression with the assumption of single-site binding (GraphPad Prism).
# (§3) The apparent dissociation constant for binding of VRAP1d3 to VLDLR CR78 was determined to be […]. We then compared binding of RAP d3, MegaRAP1 d3, VRAP1d3, MatRAP1d3 and MatRAP2 d3, each at a concentration of 80 nM, to fourteen CR pairs or triplets, including LRP1 CR3-5, LRP2 CR89, LRP2 CR2728, LRP2 CR3031, LRP2 CR34-36, LRP2 CR3536, VLDLR CR78, VLDLR CR6-8, LRP6 CR1-3, LRP6 CR12, LRP6 CR23, MAT CR12, MAT CR23 and MAT CR34 (FIG. 7).
row,Binder,binding result
1,"LRP2 CR2728 (receptor, human, UniProt P98164 3552-3631, looked up, domain: CR2728; not shown: N-terminal hexahistidine and S-peptide tags of pET30(+)a) FCRLGQFQCSDGNCTSPQTLCNAHQNCPDGSDEDRLLCENHHCDSNEWQCANKRCIPESWQCDTFNDCEDNSDEDSSHCA",no binding (tested: 80 nM)
2,"LRP2 CR3031 (receptor, domain: CR3031; not shown: N-terminal hexahistidine and S-peptide tags of pET30(+)a) not shown",no binding (tested: 80 nM)
3,"LRP2 CR3536 (receptor, domain: CR3536; the primers (LRP2CR35F, LRP2CR36R) fit CR3536; not shown: N-terminal hexahistidine and S-peptide tags of pET30(+)a) not shown",no binding (tested: 80 nM)

# Molecular target: T1, RAP d3 (wild-type third domain of the …)
# Assay: as above
# Protocol: as §1, §2, §3
row,Binder,binding result
1,"LRP2 CR2728 (receptor, human, UniProt P98164 3552-3631, looked up, domain: CR2728; not shown: N-terminal hexahistidine and S-peptide tags of pET30(+)a) FCRLGQFQCSDGNCTSPQTLCNAHQNCPDGSDEDRLLCENHHCDSNEWQCANKRCIPESWQCDTFNDCEDNSDEDSSHCA",no binding (tested: 80 nM)
2,"LRP2 CR3031 (receptor, domain: CR3031; not shown: N-terminal hexahistidine and S-peptide tags of pET30(+)a) not shown",no binding (tested: 80 nM)

# Molecular target: T2, LRP1 CR3-5 (human)
# T2 construct: range 852-973; also called L1 CR3-5; LRP1 CR3-S [sic]
# T2 sequence (Q07954 852-973): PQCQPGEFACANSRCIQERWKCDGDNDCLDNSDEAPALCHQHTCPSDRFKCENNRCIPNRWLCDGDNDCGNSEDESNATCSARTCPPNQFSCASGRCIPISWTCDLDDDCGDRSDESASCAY
# Assay: solid-phase assay, coated CR protein
# Protocol: Wells were washed with TBSTC and bound ligands detected with polyclonal anti-RAP (BP41/42, 1:1,000, BioMarin). Excess primary antibody was removed and wells washed before incubation with the secondary antibody, HRP-conjugated goat anti rabbit IgG (Bio-Rad). After washing, TMB substrate solutions (Bio-Rad) were added to detect HRP. Color development was stopped with 1N HCl. Absorption at 450 nm was measured with a microplate spectrophotometer (Molecular Devices). Data were plotted and Kd values derived by non-linear regression with the assumption of single-site binding (GraphPad Prism).
# Next, the binding of RAP d3 and MegaRAP1 d3 proteins to LRP1 CR3-5 and LRP2 CR89 was assessed. […] In all cases, 10 mM EGTA prevented binding of both RAP d3 and MegaRAP1 d3 to CR proteins. Since calcium was the only divalent metal ion present in the binding buffer, this observation is consistent with both RAP d3 and MegaRAP1 d3 binding to calcium-loaded CR pairs. […] Therefore, wild-type RAP d3 and MegaRAP1 d3 have inverted binding preferences for these two receptor fragments.
row,Binder,% max binding
1,B1,4%
2,"RAP d3 E217K (ligand, human, UniProt P30533 235-353, looked up, range 201-319 (mature RAP numbering); Forward mutant of m1; same construct; also called RAP E217K; not shown: N-terminal hexahistidine and S-peptide tags of pET30(+)a) LDRLRRVSHQGYSTEAKFEEPRVIDLWDLAQSANLTDKELEAFREELKHFEAKIEKHNHYQKQLEIAHEKLRHAESVGDGERVSRSREKHALLEGRTKELGYTVKKHLQDLSGRISRAR",91%
3,"RAP d3 E251K (ligand, human, UniProt P30533 235-353, looked up, range 201-319 (mature RAP numbering); Forward mutant of m1; same construct; also called RAP E251K; not shown: N-terminal hexahistidine and S-peptide tags of pET30(+)a) LDRLRRVSHQGYSTEAEFEEPRVIDLWDLAQSANLTDKELEAFREELKHFKAKIEKHNHYQKQLEIAHEKLRHAESVGDGERVSRSREKHALLEGRTKELGYTVKKHLQDLSGRISRAR",100%
4,"RAP d3 E251K, K256A, K270E (ligand, human, UniProt P30533 235-353, looked up, range 201-319 (mature RAP numbering); Forward mutant of m1; same construct; also called RAP E251K, K256A, K270E; not shown: N-terminal hexahistidine and S-peptide tags of pET30(+)a) LDRLRRVSHQGYSTEAEFEEPRVIDLWDLAQSANLTDKELEAFREELKHFKAKIEAHNHYQKQLEIAHEELRHAESVGDGERVSRSREKHALLEGRTKELGYTVKKHLQDLSGRISRAR",2%
5,"RAP d3 E251K, K270E (ligand, human, UniProt P30533 235-353, looked up, range 201-319 (mature RAP numbering); Forward mutant of m1; same construct; also called RAP E251K, K270E; not shown: N-terminal hexahistidine and S-peptide tags of pET30(+)a) LDRLRRVSHQGYSTEAEFEEPRVIDLWDLAQSANLTDKELEAFREELKHFKAKIEKHNHYQKQLEIAHEELRHAESVGDGERVSRSREKHALLEGRTKELGYTVKKHLQDLSGRISRAR",4%
6,"RAP d3 H249Y (ligand, human, UniProt P30533 235-353, looked up, range 201-319 (mature RAP numbering); Forward mutant of m1; same construct; also called RAP H249Y; not shown: N-terminal hexahistidine and S-peptide tags of pET30(+)a) LDRLRRVSHQGYSTEAEFEEPRVIDLWDLAQSANLTDKELEAFREELKYFEAKIEKHNHYQKQLEIAHEKLRHAESVGDGERVSRSREKHALLEGRTKELGYTVKKHLQDLSGRISRAR",90%
7,"RAP d3 K256A, K270E (ligand, human, UniProt P30533 235-353, looked up, range 201-319 (mature RAP numbering); Forward mutant of m1; same construct; also called RAP K256A, K270E; not shown: N-terminal hexahistidine and S-peptide tags of pET30(+)a) LDRLRRVSHQGYSTEAEFEEPRVIDLWDLAQSANLTDKELEAFREELKHFEAKIEAHNHYQKQLEIAHEELRHAESVGDGERVSRSREKHALLEGRTKELGYTVKKHLQDLSGRISRAR",2%
8,"RAP d3 K270E (ligand, human, UniProt P30533 235-353, looked up, range 201-319 (mature RAP numbering); Forward mutant of m1; same construct; also called RAP K270E; not shown: N-terminal hexahistidine and S-peptide tags of pET30(+)a) LDRLRRVSHQGYSTEAEFEEPRVIDLWDLAQSANLTDKELEAFREELKHFEAKIEKHNHYQKQLEIAHEELRHAESVGDGERVSRSREKHALLEGRTKELGYTVKKHLQDLSGRISRAR",4%
9,MegaRAP1 d3 T213S revertant (designed binder) LDRLRRVSHQGYSTEAKFEEPRVIDLWDLAQSANLTDKELEAFREELKYFKAKIEAHNHYQKQLEIAHEELRHAESVGDGERVSRSREKHALLEGRTKELGYTVKKHLQDLSGRISRAR,2%
10,MegaRAP1 d3 K217E revertant (designed binder) LDRLRRVSHQGYTTEAEFEEPRVIDLWDLAQSANLTDKELEAFREELKYFKAKIEAHNHYQKQLEIAHEELRHAESVGDGERVSRSREKHALLEGRTKELGYTVKKHLQDLSGRISRAR,2%
11,MegaRAP1 d3 E270K revertant (designed binder) LDRLRRVSHQGYTTEAKFEEPRVIDLWDLAQSANLTDKELEAFREELKYFKAKIEAHNHYQKQLEIAHEKLRHAESVGDGERVSRSREKHALLEGRTKELGYTVKKHLQDLSGRISRAR,85%
12,"MegaRAP1 d3 A256K, E270K double revertant (designed binder) LDRLRRVSHQGYTTEAKFEEPRVIDLWDLAQSANLTDKELEAFREELKYFKAKIEKHNHYQKQLEIAHEKLRHAESVGDGERVSRSREKHALLEGRTKELGYTVKKHLQDLSGRISRAR",93%
13,"MegaRAP1 d3 K251E, E270K double revertant (designed binder) LDRLRRVSHQGYTTEAKFEEPRVIDLWDLAQSANLTDKELEAFREELKYFEAKIEAHNHYQKQLEIAHEKLRHAESVGDGERVSRSREKHALLEGRTKELGYTVKKHLQDLSGRISRAR",16%

# Molecular target: B1
# Assay: solid-phase binding assay: LRP2 CR89 variant coated on the plate, d3 ligand in solution, anti-RAP detection, absorbance
# Protocol: as §2, with “RAP” for “Solid phase binding assays—Purified, refolded CR protein (1 μg) was bound to Nunc Maxisorp™ 96-well plates in TBS pH 8 supplemented with 5 mM CaCl₂ (TBSC) overnight at 4° C. Wells were washed with TBSC and then blocked with TBSC containing 2% bovine serum albumin (BSA). RAP”
# One premise of this work was that amino acids at A, C, A′ and C′ within the calcium-binding loops of a CR pair were key determinants of binding affinity for RAP and would be similarly important for binding of RAP variants. […] Binding to both RAP d3 and MegaRAP1 d3 were measured for each LRP2 CR89 mutant by solid-phase assay. […]
row,Binder,binding result
1,"LRP2 CR89 Y1042W R1088D (receptor, also called WVWD; not shown: N-terminal hexahistidine and S-peptide tag stretch of pET30(+)a) PTEQCGLFSFPCKNGRCVPNYWLCDGVDDCHDNSDEQLCGTLNNTCSSSAFTCGHGECIPAHWRCDKDNDCVDGSDEHNCPTHA",no binding (tested: 100 nM)
2,"LRP2 CR89 Y1042W V1047D (receptor, also called WDWR; not shown: N-terminal hexahistidine and S-peptide tag stretch of pET30(+)a) PTEQCGLFSFPCKNGRCVPNYWLCDGDDDCHDNSDEQLCGTLNNTCSSSAFTCGHGECIPAHWRCDKRNDCVDGSDEHNCPTHA",no binding (tested: 100 nM)
